Test results from the DeepSol protein solubility set.

test: soluble on expression in E. coli; label from the status in PepcDB or PDB records

Sequence | soluble on expression in E. coli
MGSDKIHHHHHHMRKSIVLSTAMALAAGTAAYAAEISDGKVKIGILNDQSGVYANFGGKYSYEAAKMAVEDFGGKVLGAPVEVVTADHQNKADVASNIARQWYDTEQVDSIMELTSSSVGLAVQALSKDKKKITVNTGAATTELTGKQCSPYGFHWAYDTYSLAVGTGGALVKQGGDSWFFLTADYAFGYSLEENTSNFVKANGGKVLGSVRHPLATTDYSSFLLQAQSSGAKVIGLANAGLDTSNAIKQASEFGIVAGGQRLAALLFTLAEVHGLGLEAAQGLTLTEGFYWDRDDESRKFGERFKERTGAMPNMIHTGTYSAVLHYLKAIEKAGTDDADAVAKAMKEMPVNDVFAKDGHVAANGRMIHDMYLMEVKKPDESKQPWDYYKVLATIPGKEAFMDPTKSGCPLVKQ | not soluble
MDQNTTPAPGLRETKKRETRQLISDHATRLFIERGFEHTTIAEIADAARVAKKTVTNYFPRKEDLALDHQDEFVAALAATVTARGAGETPLTALRHAFLAAVAAQDPVAGFAGQAFTRMIADSPTLTACLRGLHDRREEALTAALAGTTDTPPDDITPRTAAALLGGVHRVLFNRIQELTLAGRATPEIAEVLAREAPRAFDLLTPALAEYGRRP | not soluble
MIHSSVKRWGNSPAVRIPATLMQALNLNIDDEVKIDLVDGKLIIEPVRKEPVFTLAELVNDITPENLHENIDWGEPKDKEVW | soluble
MAHHHHHHMKRRCDLLEVHSVAARPHKRGGTETTREHHFPLYSHPMFRAARHNANAVQDAVAEQSDRVDPGALDAALENMVTQLVEQRLSRHEAEGDTSPTLAKKNFIVTESELLALLAEATHATPLSPRPQQPPSAFPPSRPEAIAALAAAAAASSPPPQQGPFIPNQGYHTTHPPLQSNGDAERRAGPPPRTQASLFSGAASALGGDEPDELNVVSVGALQQAALRSLGHMDEQAAPRLPPLSESVASTTSGPTTKQRHPPTMPLYSLLPCLVASPGLTAASVLPAIVSSSLNPSPSSVTFREMDRCPGTGTGLVAQQSVDAQQLHQVPDAVFAAMDVLMDGNNCCMRRRKRLVATNGNKAESLSLNPRCLPGSGGGASGGSCFAFGCGSKGASLNRMYVPVAQNTLPAPPPPRTASEAKARRILEGQRRKQRLHDQQQHLVSNSFSLAGGGNTAPLSSSLVEFRSDTTSLPTEPFRWRHIDRSGSRTHSSAHPAPLPAASSVSRSAAVVVGTASTLPLTQEASLTFTLRDIAGEPVYMQAISAANRCWPASLI | not soluble
MTGTERKVFQKYYPPDFDPSKIPRAKGQKNRQFVQRVMTPFNMQCNTCHEYIYKGKKFNMKRETAEGETYLGLKLFRFYFRCPNCLAEITFKTDLENCDYQNEHGATRLFEAVKLYQDQQKQVDEQEAEDAKDPMKMLEKRTMQSRQEMEEMGNLEDLQESSRTKECIDTIGFLSSTDPHIAQAQRIKMMEDEDDRMARELMGITSEGRIERRIKDDEDNSDGADEDDKDIPGPSASVVPSTSSMLKPAIPKLGMDDSGNSRKRNEQRDRFAGIKLIKKAKPSEPSTSSTASSTSSAPPPLPSSAASSGLSLLADYGSGSDSD | not soluble
MGSDKIHHHHHHMSKWQSKEQLIQLLSSLVEIPSITGTEAEVILPDFVVEQLSDLQYFKENPHHLQKNPTGDGRYFVTALVKKSDRTKNTVILVSHFDVVDVQDYGVWKEDAFNPKKLTSMFYAHKDELPDHVREDIEQGEWLFGRGTMDMKCGLALQMAMIEQACEGRFDGNVLLLAVPDEEVNSVGMRAAIPRLLELAREHDLEYKTVLNSEPMFARHPGDQKKYIYTGSIGKVLPGFLCYGKETHVGEPFAGLNGSYMASLITAELELNTDLCDIVEGEASPPPTNLLQRDLKEDYSVQIPHRAVTLFNLFLLEKSMTDVVSLLRQKVTKVAEKIEEKYEKQAYRFSKYNPFIPPNMKVNVLTYEELIAYAIEQHGQEKINEIQSSIIKNREEKDDRAVTIDLVDKLAILCKEKAPMIVLFFAPPYYPAVSSRNNLLIKEVVTEMEKYANLNHNITFENQNYFGGISDLSYVGLQNPLDSMSSLVDNMPLWDKGYSIPLQELEEFDVPVLNMGPVGKDAHQWTERLDVNYAFETLLDMLPICIEKLLVSNKITQV | not soluble
MPCAETFGSEYFLAQGSPVNSTATPPEPLPPFLQPGDRVLLFDGVCKLCNASVRFVIRHDSQRRIKLASVQSPQGQALLAWFGLPTEQFDSVVLIEEGRLSQRSDAFIRLMAQLPAPWRWLRLLRGVPRPLRDWVYDLIARNRYRLFGRLDVCLLPSPDHQGRFLDDPSLEHHHHHH | not soluble
MGSDKIHHHHHHMTETLVQVQKLAMDFPGQKLFNNLSFDVDRRDFLSIIGENGVGKTTLIRALLNQVKPTSGSIKFRKGTKVGYVPQFRNIERDYPLSIRDFVALNLQNGKMPWLSKMERTQLDEILEETDLVDIQNTRIGRASGGQKQKAYLAQALVDNPDLLILDESTASLDTVRKYELFNLVQHFNQQHDLTVISVTHDFDLMQRYSNRYLMLKEDHYALGEVADIKNEEDLLDV | not soluble
MTKLQGLQGLKHIKAVVFDMDGTLCLPQPWMFPAMRNAIGLEDKSIDILHFIDTLPTEKEKKEAHDRIELVEAKAMKEMQPQPGLVDIMRYLTKNGISKNICTRNVGAPVETFVKRFIPSELSRFDYIVTREFRPTKPQPDPLLHIASKLNIRPLEMIMVGDSFDDMKSGRSAGCFTVLLKNHVNGHLLLEHKELVDVSVEDLSEIIELIQNMNKESF | not soluble
MGSDKIHHHHHHMSNQRYMMRGVSASKEDVHNAIKNIDKGIFPKAFCKIIPDILGGDPEYCNIMHADGAGTKSSLAYMYWKETGDLSVWKGIAQDALIMNIDDLLCVGAVDNILVSSTIGRNKLLIPGEVISAIINGTDELLAELREMGVGVYATGGETADVGDLVRTIIVDSTVTCRMKRSDVINNANIRPGDVIVGLASYGQATYEKEYNGGMGSNGLTSARHDVFGKYLAEKYPESYDAAVPEELVYSGGLKLTDTVEDSPIDAGKLVLSPTRTYAPVVKKLLDTLRPEIHGMVHCSGGAQTKVLHFVENVRVVKDNLFPVPPLFKTIQEQSGTDWAEMYKVFNMGHRLEVYLSPEHAEEVIAISESFGIPAQIVGRIEACDQTELIIKSEFGEFRY | not soluble
MAADPASAPVLLHPRRAMVLAAGLGLRMRPLTETMPKPLVAIHDKPLIDWALDHLATAGVEEAVVNLHHLPEMLEAHLQGRATPRIHFSDETGQRLETGGGVRKALPHLGDDPFYVLNSDVLWLNGTIPALDRLAAAWDPETMDALLLLHPLAAAHGYEGLGDFDLDPLGRPTRRAEMHMAPFIFTGVQILHPRLFDDAPEGPFSLNVLYDRALSEDRLAAIVHDGEWYHVGTPQALVHTETILGQHSSMSDQLEHHHHHH | not soluble
MGSDKIHHHHHHMALLEVKNLKKYFPIIKRGFRRKVVGYLKAVDGISFHIEEGETLGLVGESGCGKTTTAKLIMRGIEPTEGEIVLNMDGEKVDITKLSEKELREKGVRRFLQMIFQDPYSSLNPRMTVRDIIAEPLVVNGVIKGKEEIDAIVSDLLRAVGLRPEYMQRYPHAFSGGQRQRIAIARAIALKPKLVLCDEPTSALDVSVQAQIINLLKDLQKEYNLTYLFISHDLGVVEHITNRVAVMYVGRIVELAETEELFSSPKHPYTEALLSAVPKPDPKRKRKKAQLTGEVPDPSNPPSGCYFHPRCPYAKAICKEVYPDLRNVGTDQNPHLVACHFADSLKLEGVGTM | not soluble
MGSDKIHHHHHHMLYQGVSLILAPLLVFQGLNVRRTTPRLPEPEGERVGQTGANPALSLLILGDSAAAGVGVAFQQHALLGQVIEQLSPQLEFSYGLFAKTGSTTSTTLQALQEQIDIAHPILGQTHFDVIVTSLGVNDITSSISCEKWLLQQKALFELITKRYTPKLILVTALPPLGLFPALPHPLRWSLGQRANQFNRQLQQLLIKLNQQVDQPTDFRLIKLPLENPQPDITMLEFMRQVMASDGFHPGAPIYSAWANLVVEQIVGGIKSAAIA | not soluble
GESLFKGPRDYNPISSTICHLTNESDGHTTSLYGIGFGPFIITNKHLFRRNNGTLLVQSLHGVFKVKNTTTLQQHLIDGRDMIIIRMPKDFPPFPQKLKFREPQREERICLVTTNFQTKSMSSMVSDTSCTFPSSDGIFWKHWIQTKDGQAGSPLVSTRDGFIVGIHSASNFTNTNNYFTSVPKNFMELLTNQEAQQWVSGWRLNADSVLWGGHKVFMSKPEEPFQPVKEATQLMNELVYSQ | soluble
EVKLVESGGGLVLPGGSLRLSCATSGFTFTDYYMTWVRQPPGKALEWLGFIGNKANDYTTEYSASVKGRFTISRDDSQSILYLQMSTLRAEDRATYYCATVYGNYPYFDVWGVGTTVAVSSATTTAPSVYPLVPGCSDTSGSSVTLGCLVKGYFPEPVTVKWNYGALSSGVRTVSSVLQSGFYSLSSLVTVPSSTWPSQTVICNVAHPASKVDLIKEISGP | soluble
MGSDKIHHHHHHMITDENKKLAQWAMDYALKNGCQAAKVLLYSSSNTSFELRDAKMDRLQQASEGGLSLSLYVDGRYGSISTNRLNRKELETFIKNGIDSTRYLAKDEARVLADPSRYYKGGKPDLKLYDAKFASLNPDDKIEMAKAVAEEALGKDERIISVGSSYGDGEDFAYRLISNGFEGETKSTWYSLSADITIRGEGEARPSAYWYESSLYMNDLIKKGIGQKALERVLRKLGQKKVQSGKYTMVVDPMNSSRLLSPMISALNGSALQQKNSFLLNKLNEKIASDRLTLTDEPHLVKASGARYFDNEGIATERRSIFDKGVLNTYFIDTYNAKKMGVDPTISGSSILVMETGDKNLDGLIAGVEKGILVTGFNGGNNNSSTGDFSYGIEGFLIENGKLTQPVSEMNVTGNLITLWNSLVATGNDPRLNSSWRIPSLVFEGVDFSGL | soluble
MSLAATGDAGWRIRLREAAVVAGPTVLLGEVADPVGEMPAAVWRDLAARPLWAAPADAGRPMIVNKVRLGEALRAALGATADSCLLPPSMALQRGGAVLREGDLRDIVVRTMTPQLASMGGEASFSDFRLPPFAFLEHPQQKVILEPLQPAPGRLSLRFAVLEMDGAVVRRFTGTAFLDVWLTVPCAAQPLNRGDRLEVEKVTWMRKNIAHLRAAPWDGRGGPWQLQRPVGAGQVVYQDDVAPNPAVTRGGIVTLVYESPALRLAVQGEALADGMPGETIQVRNLQSRKQVYATVRDGSTVVVREGHHHHHH | soluble
MGSDKIHHHHHHMKKALVIGGGFAGCSAAHLLSLQGGWDITVVESGPWLGGGCKTLWYGGHPYTFGPRHFLTQNVPVFDYLNKYCPLRRCNDHVFLTYVEKDAQFYNYPIHIDDVARMPEKDQINKELTEAKQLNGAGAAKDFEEYWLASIGRTLYDKFVNTYSKKMWMLDDNKVMDDFSWSPKGVALKEGPRQAWDTAISAYPIAPNGYDDYFEIATRAEGVKVLWTTIEQYDLPNKTVVIDGEKRTYDAIINTASPDLVMDNAFGELPYIGRDFIKFVLPIAHAFPKDVYFLYYASDEPFTRLVEYKQFTRINYDAESTIIGMEIPSKNGRYYPLPLKTEYERAQKYFDAMGENVFSIGRCGSYQYRVDVDDCIAQAMDSVEKLK | not soluble
MGSDKIHHHHHHVNYIKRAMENTFLRLAKEFPALLLTGPRQTGKTTMLQKLAAEEKIGRNYVTLDDLTERQMAKNDPKMFLQIHKPPVFIDEVQYAPELFSYIKIHIDRHHRPGDFWLTGSQVFKLMDGVQESLAGRVGLLHMSPMSQAESCGADTTPFILDLEQLTRRVRERNPLDTPALYERIFRGGMPALVSGQYTDHWALYSSYISTYLDRDVKEISGTINSLRFMDFITAAAALCGQMLNYKTIADAAGIDQLTAKGWLGILERLGIIFYLHPYANNMLKRMVTKPKLYFYDCGLVAYLTKWSDSATLMNGAMSGAILENFVVSEIIKSYQNYGREAFIYYYRDKDTKEIDILLEDSGKLYPMEIKKTATPQKQLTRVFNVIDKATLERGTGAVLCTTDRLSAFDSENLIIPIWGI | not soluble
